In patent publication US20110124556 (published 2011) one finds Kd data, which are given here for 20 molecules.

No end group written: not given here. βturn = not defined here

The target of this experiment is human insulin receptor (HIR) (human, UniProt P06213). Kind of experiment: competition.

Take WLEQERAWIWCEIQGSGCRA [S263 (D8B12)]: the Kd – broadly, the free concentration of one partner at which half of the binding sites on the other are occupied at equilibrium, for simple one-to-one binding – was over 20000 nM.

B1: S229 (peptide)
chain 1: SDGFYNAIELLSX
chain 2: KHLCVLEELFWGASLFGYCSGKKX
modifications: not fully specified; listing feature
The molecule B1 yielded a Kd of 4.4 nM. This lies in the single-digit nanomolar range.

The molecule SLEHEWAQVECEVYGRGCPSGSLDESFYDWFERQLG [S537] had a Kd of 0.044 nM.

Turning to SLEEEWAQVECEVWGRGCPSGSLDESFYDWFERQLG [S541], the Kd amounted to 0.0078 nM.

In the case of GSLDESFYDWFERQLGKKKS [S373], the Kd was determined as 120 nM.

As for SLEEEWAQVECEVYGRGCPSFYDWFERQL [S531], the dissociation constant Kd amounted to 0.075 nM. Compared with the last molecule, the Kd is about 1600-fold lower.

B2: S453 (peptide)
chain: GSLDESFYDWFERQLGKKKXXKEWLDQEWAWVQCEVYGRGCPSEE
modifications: not fully specified (residues 19, 20, 21); printed as GSLDESFYDWFERQLGKKK-Ald-17-Ald-KEWLDQEWAWVQCEVYGRGCPSEE; cysteine pairing not given here; also: two peptides (1-19 and 22-45) joined by linker 17 between the Ald group on K19 and an N-terminal Ald on the second peptide
B2 gave a Kd of 0.57 nM.

Turning to SLEEEWAQIECEVWGRGCPSGSLDESFYDWFERQL [S560], binding was characterised by a dissociation constant (Kd) of 0.014 nM.

For SLEEEWAQVECEVWGRGCPS [S548], the Kd amounted to 4.1 nM.

B3: S454 (peptide)
chain 1: GSLDESFYDWFERQLGKKKX
chain 2: EWLDQEWAWVQCEVYGRGCPSEEKX
modifications: not fully specified; listing feature
For B3, binding was put at a Kd of 0.38 nM.

Regarding SDGFYNAIELLS [S118], the Kd was 24000 nM.

As to SLEEEWAQIEEVWGRGSESFYDWFERQLG [S571], binding was put at a Kd of 1.8 nM.

The molecule FYDWFERQLG [S392] gave a Kd of 38 nM.

As to AFYDWFAKK [S167], the Kd is over 2000 nM.

The molecule SLEEEWAWVQCEVYGRGCPSESFYDWFERQL [S534] yielded a Kd of 0.01 nM.

Take AHENFYDWFVRQVSKK [S113]: the Kd turned out to be 590 nM.

B4: S580 (peptide)
chain 1: SLEEEWAQVECEVYGRGC-βturn
chain 2: ESFYDWFERQLG
modifications: not fully specified (bridges); printed as SLEEEWAQVECEVYGRGC-βturn-ESFYDWFERQLG; ends and bridges not checked; also: chain 1 continues via βturn into chain 2 (C-N fusion)
B4 returned a Kd of 0.012 nM.

In turn, SLEEEWAQIEEVWGRPSESFYDWFERQLG [S570] returned a Kd of 0.73 nM.

Consider DPFYQGLWEWLRESGEE [S289], for which the equilibrium dissociation constant (Kd) was over 2000 nM.

SLEEEWAQIEAEVWGRGAPSESFYDWFERQLG [S574]: the Kd came out at 0.0092 nM. In other words, the picomolar range.
